The assay concerns the target T1, p65 subunit of NF-κB (human (endogenous in AC16), UniProt Q04206 1-551).
T1 construct: p65 subunit of NF-κB (RelA), endogenous in human cardiac AC16 cells; precipitated with an anti-p65 antibody; also called RelA/p65; source: endogenous, human cardiac AC16 cells, nuclear extract
The experiment in a line: co-IP; AC16 nuclear extracts (25 µg) precipitated with 4 µg anti-p65 and protein A-agarose at 4°C, blotted with anti-E2F1; cells with or without TNF-α (100 ng/ml, 24 h), parthenolide (10 µmol/L), siRNA to p65, or LacZ- or E2F1-carrying plasmids. The note with it: partners not purified.

T1 sequence (Q04206 whole entry): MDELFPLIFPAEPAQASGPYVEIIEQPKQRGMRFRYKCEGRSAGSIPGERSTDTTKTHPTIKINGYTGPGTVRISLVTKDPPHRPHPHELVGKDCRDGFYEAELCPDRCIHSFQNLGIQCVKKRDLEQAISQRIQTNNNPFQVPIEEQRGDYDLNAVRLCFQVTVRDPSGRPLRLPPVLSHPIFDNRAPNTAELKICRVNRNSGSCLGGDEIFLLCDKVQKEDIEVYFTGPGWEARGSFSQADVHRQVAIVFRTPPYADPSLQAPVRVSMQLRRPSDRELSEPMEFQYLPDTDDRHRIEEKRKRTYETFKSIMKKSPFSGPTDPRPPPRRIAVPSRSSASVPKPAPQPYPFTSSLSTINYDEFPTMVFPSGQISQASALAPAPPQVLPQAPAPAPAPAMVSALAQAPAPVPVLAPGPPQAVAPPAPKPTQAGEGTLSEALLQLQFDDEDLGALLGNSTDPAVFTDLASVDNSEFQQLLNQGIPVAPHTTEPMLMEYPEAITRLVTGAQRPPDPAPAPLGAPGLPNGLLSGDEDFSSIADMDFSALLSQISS

B1: E2F1 overexpressed from the pSG5L/E2F1 construct (natural protein)
chain: not shown
notes: human E2F1 expressed from the pSG5L/E2F1 construct (human gene, Addgene plasmid 10736); The transfected cells also hold endogenous E2F1; source: AC16 cells, transfected (Lipofectamine 2000), in nuclear extract
As to B1, the “fold of p65-E2F1 association vs. LacZ” value was determined as 2 fold and the “fold of p65-E2F1 association vs. LacZ (with TNF-α)” value is 4 fold.

These data come from publication PMC3100304, “The Interplay between NF-kappaB and E2F1 Coordinately Regulates Inflammation and Metabolism in Human Cardiac Cells” (PLoS ONE, 2011).
